Laboratory results taken from patent publication US20210347908A1 (ELPISCIENCE SUZHOU BIOPHARMA, published 2021).

Tests used:
[1] = target: T1, biotin labeled soluble human SIRPα v1 ECD recombinant protein (human, UniProt P78324 31-373, biotin labeled); test: competitive ELISA; competitor 035
T1 construct: extracellular domain
Method: (§1) Competitive ELISA assay was used for epitope binning of 9 functional antibodies. Briefly excessive competitor antibody and biotin labeled soluble human SIRPα v1 ECD recombinant protein were co-incubated with ELISA microplate coated antibody. After washing, HRP-SA was added and incubated at 37° C. for 1 hour. Then, […] of TMB solution (Biotechnology) was added. After incubation for 15 minutes at room temperature, the reaction was stopped by the addition of […] of 1N HCl. OD 450 nm was read. Competition ratio was calculated. The antibodies that can compete each other for binding to SIRPα have the similar binding epitope.

[2] = target: T1, biotin labeled soluble human SIRPα v1 …; test: competitive ELISA, biotin-SIRPα v1 ECD to coated CD47 ECD
Method: Competitive ELISA assay was used to determine whether the purified hybridoma antibodies can block CD47 and SIRPα interaction or CD47 and SIRPγ interaction. Briefly, for CD47 and SIRPα interaction blocking activity detection, antibody and biotin labeled soluble human SIRPα v1 ECD recombinant protein were co-incubated with ELISA microplate coated human CD47 ECD recombinant protein.
For CD47 and SIRPγ interaction blocking activity detection, antibody and biotin labeled soluble human CD47 ECD recombinant protein were co-incubated with ELISA microplate coated human SIRPγ ECD recombinant protein. After washing, horseradish peroxidase labeled streptavidin (HRP-SA, Sigma) was added and incubated at 37° C. for 1 hour. Then, 100 μl/well of TMB solution (Biotechnology) was added. After incubation for 15 minutes at room temperature, the reaction was stopped by the addition of 50 μl of 1N HCl. OD 450 nm was read. Blocking ratio and IC₅₀ was calculated. In comparison with other known anti-SIRPα antibodies, 022, 050, 055, and 074 cannot block CD47 and SIRPα interaction. In particular, all of the antibodies of the invention cannot block CD47 and SIRPγ interaction.

[3] = target: T1, biotin labeled soluble human SIRPα v1 …; test: competitive ELISA; competitor 29-AM4-5
Method: as §1

[4] = target: T1, biotin labeled soluble human SIRPα v1 …; test: competitive ELISA; competitor 002
Method: as §1

[5] = target: T1, biotin labeled soluble human SIRPα v1 …; test: competitive ELISA; competitor 074
Method: as §1

[6] = target: T2, Fc tagged human SIRPβ ECD recombinant protein (human, UniProt O00241 30-371); test: ELISA
T2 construct: range 1-371; cloned range includes the signal peptide; also called hSIRPβ; not shown: human IgG Fc region (hFc) of the pCPC vector
In short: (§2)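 Read-out: OD 450 nm after TMB development (15 min, RT) and 1N HCl stop; EC₅₀ calculated. Antibodies bound to coated antigen 1 h at 37° C., detected via HRP anti-mouse/anti-human IgG secondary, 1 h at 37° C.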

[7] = target: T3, Fc tagged human SIRPα v2 ECD recombinant protein (human); test: ELISA
T3 construct: range 1-369; cloned range M1-R369 includes the signal peptide; also called hSIRPα V2
In short: as §2

[8] = target: 6×His tagged human SIRPα v2 ECD recombinant protein (human); test: SPR (Biacore)
Method: (§3) Anti-SIRPα chimeric antibodies were characterized for binding affinity against human SIRPα v1, human SIRPα v2 and C57BL/6 mouse SIRPα using Biacore (GE). Briefly the antibodies to be tested were captured to CM5 chip (GE) using Human Antibody Capture Kit (GE). The antigens of 6×His tagged human SIRPα v1, human SIRPα v2 and C57BL/6 mouse SIRPα ECD recombinant proteins were serially diluted for multiple doses and injected at 30 μl/min for 180 s. Buffer flow was maintained for dissociation of 400 s. 3 M MgCl₂ was used for chip regeneration. The association and dissociation curves were fit with 1:1 binding model, and the Ka/Kd/KD values for each antibody were calculated.

[9] = target: T4, 6×His tagged human SIRPα v1 ECD recombinant protein (human, UniProt P78324 31-373); test: SPR (Biacore)
T4 construct: extracellular domain; bought; also called hSIRPα V1 (SPR antigen)
Method: as §3

Row | % Competition [1] | IC50 [2] | % Competition [3] | % Competition [4] | % Competition [5] | EC50 [6] | EC50 [7] | Kd [8] | Kd [9] | Binder
1 | 51% | 0.5 nM | 70% | 81% | 2% | 0.08 nM | – | – | – | reference antibody HEFLB (antibody, V domains shown) VH: EVQLVQSGAEVKKPGESLRISCKASGYSFTSYWVHWVRQMPGKGLEWMGNIDPSDSDTHYSPSFQGHVTLSVDKSISTAYLQLSSLKASDTAMYYCVRGGTGTLAYFAYWGQGTLVTVSS VL: DVVMTQSPLSLPVTLGQPASISCRSSQSLVHSYGNTYLYWFQQRPGQSPRLLIYRVSNRFSGVPDRFSGSGSGTDFTLKISRVEAEDVGVYYCFQGTHVPYTFGGGTKVEIK
2 | 96% | 1.4 nM | 92% | 95% | 5% | – | – | – | – | Antibody 001 (hybridoma antibody) (antibody, V domains shown, mouse hybridoma antibody) VH: EVKLEESGGGLVQPGGSMKLSCVASGFTFRNYWMNWVRQSPERGLEWIAEISLKSNTYATHYAESVKGRFAISRDGSKSSFYLQMNDLRAEDTGIYYCTTFTKVVADWHLDVWGAGTTVTVSS VL: DVLMTQTPLSLPVSLGDQASISCRSSQNIVHSNGNTYLEWYLQKPGQSPKLLIYKVSNRFSGVPDRFSGSGSGTDFTLRISRVEAEDLGVYYCFQGSHVPFTFGSGTKLEIK
3 | 91% | 0.2 nM | 83% | 93% | 6% | – | – | – | – | Antibody 032 (hybridoma antibody) (antibody, V domains shown, mouse hybridoma antibody) VH: EVRLEESGGGLVQPGGSMKLSCVVSGFTFRNYWMNWVRQSPERGLEWIAEITLKSNTYATHYAESVKGRFAISRDDSKSSFYLQMNDLRPEDTGIYYCTTFTKVVADWHLDVWGAGTTVTVSS VL: DVLMTQTPLSLPVNLGDQASISCRSSQNIVHSNGNTYLEWYLQKPGQSPKLLIYKVSNRFSGVPDRFSGSGSGTDFTLRISRVEAEDLGVYYCFQGSHVPFTFGSGTKLEIK
4 | 93% | 1.3 nM | 87% | 90% | -10% | – | – | – | – | Antibody 002 (hybridoma antibody) (antibody, V domains shown, mouse hybridoma antibody) VH: EVKLEESGGGLVQPGGSMILSCVASGFTFRNYWMNWVRQSPERGLEWIAEITLKSNTYATHYAESVKGRFAISRDDSKSSFYLQMNDLRPEDTGIYYCTTFTKVVADWHLDVWGAGTTVTVSS VL: DVLMTQTPLSLPVSLGDQASISCRSSQNIVHSNGNTYLEWYLQKPGQSPKLLIYKISNRFSGVPDRFSGSGSGTDFTLRISRVEAEDLGVYYCFQGSHVPFTFGSGTKLEIQ
5 | 3% | > 1000 nM | -5% | 1% | -1% | – | – | – | – | Antibody 060 (hybridoma antibody) (antibody, V domains shown, mouse hybridoma antibody) VH: QVQLKESGPGLVAPSESLSITCTVSGFSLTNYDISWIRQSPGKGLEWLGVIWTGGDTNFNSAFMSRLSISKDKSKSQVFLKLNSLQTDDTAIYYCVRVQYFGGSYGPMDYWGQGISVTVSS VL: DIQMTQASSYLSVSLGGRVTITCEASDHINDWLAWYQQTPGNAPRLLISGATSLETGVPSRFSGSGSGKDYTLSITSLQTEDIATYYCQQYWNTPLTFGAGTRLELK
6 | 98% | 1.4 nM | 91% | 94% | 4% | 0.08 nM | 0.08 nM | – | – | reference antibody 29-AM4-5 (antibody, V domains shown) VH: EVQLVESGGGLVQPGGSLRLSCAASGFNISYYFIHWVRQAPGKGLEWVASVYSSFGYTYYADSVKGRFTISADTSKNTAYLQMNSLRAEDTAVYYCARFTFPGLFDGFFGAYLGSLDYWGQGTLVTVSS VL: DIQMTQSPSSLSASVGDRVTITCRASQSVSSAVAWYQQKPGKAPKLLIYSASSLYSGVPSRFSGSRSGTDFTLTISSLQPEDFATYYCQQAVNWVGALVTFGQGTKVEIK
7 | 93% | 4.9 nM | 50% | 86% | 6% | – | – | – | – | Antibody 035 (hybridoma antibody) (antibody, V domains shown, mouse hybridoma antibody) VH: QIQLVQSGPELRKPGETVKISCKASGYSFTNYAMNWVKQAPGKVLKWMGFINTYTGEPTYADDFKGRFAFSLETSASTAYLQINNLKNEDTATYFCTRTRGYYDFDGGAFDYWGQGTSLTVSS VL: DIVMTQSQKFMSTSIGDRVSVTCKASQNVGTHLAWYQQKPGQSPKALIFSASYRYIGVPDRFTGSGSGTDFTLTITNVQSEDLAEYFCQQYNTYPLTFGAGTKLELK
8 | 4% | 0.6 nM | 54% | 49% | 1% | 0.08 nM | 0.09 nM | 14.7 nM | 2.66 nM | reference antibody KWAR23 (antibody, V domains shown) VH: EVQLQQSGAELVKPGASVKLSCTASGFNIKDYYIHWVQQRTEQGLEWIGRIDPEDGETKYAPKFQDKATITADTSSNTAYLHLSSLTSEDTAVYYCARWGAYWGQGTLVTVSS VL: QIVLTQSPAIMSASPGEKVTLTCSASSSVSSSYLYWYQQKPGSSPKLWIYSTSNLASGVPARFSGSGSGTSYSLTISSMEAEDAASYFCHQWSSYPRTFGAGTKLELK
